PMC3032553, “Structural Basis for c-di-GMP-Mediated Inside-Out Signaling Controlling Periplasmic Proteolysis” (PLoS Biology, 2011)

B1: LapD^dual S229D (domain or fragment, P. fluorescens Pf0-1, UniProt Q3KK31 220-648, looked up)
chain: ALFQEQAERDEKLRTESYQDNLTGLANRRYFEMQLNARVSNPEQASSGYLLLLRVKDLAGLNQRLGGQRTDELLKAVGEQLSRECAKYPETQNLVTRIRGGEFAVLAPGMTREEALQLAQSLDSALSSLYATGATDVAAVASIGLAPFAHGDSPQAVLSLGDQALAQAEGQGEQNWACLDQSLVADVGDDHHAWHRLLDQALNQRRFELFFQPVVAAQDTQLVLHYKVLSRLLDEQGQTIPAGRFLPWLERFGWTARLDRLMLERVLEQMAGHEESLALNLSSATLADPQALNKVFEILRAHSNLGARLTLEIGEEQLPEQAVLEQLTRRLRELGFSLSLQRFGGRFSMIGNLARLGLAYLKIDGSYIRAIDQESDKRLFIEAIQRAAHSIDLPLIAERVETEGELSVIREMGLYGVQGQLFGEPKPWG
notes: LapD, P. fluorescens Pf0-1, residues 220-648, mutation S229D in the S helix; also called S helix-EAL interface mutant; source: produced following standard molecular biology and liquid chromatography techniques, purified (protocols in Text S1)
B2: LapD^dual E262A (domain or fragment, P. fluorescens Pf0-1, UniProt Q3KK31 220-648, looked up)
chain: ALFQEQAERSEKLRTESYQDNLTGLANRRYFEMQLNARVSNPAQASSGYLLLLRVKDLAGLNQRLGGQRTDELLKAVGEQLSRECAKYPETQNLVTRIRGGEFAVLAPGMTREEALQLAQSLDSALSSLYATGATDVAAVASIGLAPFAHGDSPQAVLSLGDQALAQAEGQGEQNWACLDQSLVADVGDDHHAWHRLLDQALNQRRFELFFQPVVAAQDTQLVLHYKVLSRLLDEQGQTIPAGRFLPWLERFGWTARLDRLMLERVLEQMAGHEESLALNLSSATLADPQALNKVFEILRAHSNLGARLTLEIGEEQLPEQAVLEQLTRRLRELGFSLSLQRFGGRFSMIGNLARLGLAYLKIDGSYIRAIDQESDKRLFIEAIQRAAHSIDLPLIAERVETEGELSVIREMGLYGVQGQLFGEPKPWG
notes: LapD, P. fluorescens Pf0-1, residues 220-648, mutation E262A in the GGDEF domain; also called GGDEF-EAL interface mutant; source: produced following standard molecular biology and liquid chromatography techniques, purified (protocols in Text S1)
B3: LapD^dual, wild-type (dual GGDEF-EAL domain module of LapD, residues 220-648) (domain or fragment, P. fluorescens Pf0-1, UniProt Q3KK31 220-648, looked up)
chain: ALFQEQAERSEKLRTESYQDNLTGLANRRYFEMQLNARVSNPEQASSGYLLLLRVKDLAGLNQRLGGQRTDELLKAVGEQLSRECAKYPETQNLVTRIRGGEFAVLAPGMTREEALQLAQSLDSALSSLYATGATDVAAVASIGLAPFAHGDSPQAVLSLGDQALAQAEGQGEQNWACLDQSLVADVGDDHHAWHRLLDQALNQRRFELFFQPVVAAQDTQLVLHYKVLSRLLDEQGQTIPAGRFLPWLERFGWTARLDRLMLERVLEQMAGHEESLALNLSSATLADPQALNKVFEILRAHSNLGARLTLEIGEEQLPEQAVLEQLTRRLRELGFSLSLQRFGGRFSMIGNLARLGLAYLKIDGSYIRAIDQESDKRLFIEAIQRAAHSIDLPLIAERVETEGELSVIREMGLYGVQGQLFGEPKPWG
notes: LapD, P. fluorescens Pf0-1, residues 220-648 (S helix, degenerate GGDEF and EAL domains); also called apo-LapD^dual; intracellular module of LapD; source: produced following standard molecular biology and liquid chromatography techniques, purified (protocols in Text S1)

How the values were obtained:
[1] = target: the molecule itself; assay: AUC; sedimentation equilibrium, no c-di-GMP; 1x, 2x, 4x dilutions of ~12 µM protein; 25 mM Tris pH 7.5, 150 mM NaCl; 20°C; 10,000, 14,000 and 20,000 rpm, global fit; monomer:dimer equilibrium
[2] = target: the molecule itself; assay: AUC; sedimentation equilibrium with 20 µM c-di-GMP; 1x, 2x, 4x dilutions of ~12 µM protein; 25 mM Tris pH 7.5, 150 mM NaCl; 20°C; global fit with dinucleotide binding and dimerization of the c-di-GMP-bound form; monomer:dimer equilibrium
[3] = target: the molecule itself; assay: SEC-MALS; protein incubated with 500 µM c-di-GMP for 30 min at room temperature before SEC, no c-di-GMP in the mobile phase; 20-320 µM injected protein; 25 mM Tris-HCl pH 8.4, 250 mM NaCl; 25°C

Protein	Kd [1] [µM]	Kd [2] [µM]	binding result [3]
B1	420	0.18	
B2			binds
B3	400	0.67	
